In USRE48805E1, “Method for cancer targeting treatment and detection of arginine using albumin-binding arginine deiminase fusion protein” (Vision Global Holdings Ltd., priority 2013, dated 2021):

Tests used:
N=C(N)NCCC[C@H](N)C(=O)O [1] = test: Enzyme kinetics (Km), citrulline detection by DAM-TSC assay; assay type: biochemical, Mycoplasma arginini; settings: other: substrate arginine (62.5-2000 μM), pH 7.4
Description: (§1) To determine the enzyme activity for wild-type ADI and AAD fusion protein in the present invention, the diacetyl monoxime (DAM)-thiosemicarbazide (TSC) assay for citrulline detection is used. The reaction is shown below. L-Arginine argininedeiminase(ADI)orAADfusion>L-Citrulline+Ammonia
(§2) This assay is run by adding sample to a color reagent, which is made by mixing acidic ferric chloride solution with DAM-TSC solution. […] The reaction mixture is heated at 100° C. for […] to develop the color and read at 540 nm (light path=1 cm). A standard curve is constructed using various concentrations of citrulline. One unit of the ADI native enzyme is the amount of enzyme activity that converts 1 μmol of arginine to 1 μmol of citrulline per minute at 37° C. under the assay conditions. The specific activities of wild-type ADI, pegylated ADI (Ensor et al., Cancer Res. 62:5443-5450, 2002) and AAD fusion protein in the present invention are about 20, 15 and 19 U/mg (at pH 7.4, physiological pH), respectively. The specific activities for wild-type ADI and AAD fusion protein at different pH values (in a range from pH 5.5 to 9.5) are also determined, and the optimum pH is at 6.5.
(§3) The Michaelis constant Km is the substrate concentration at which the reaction rate is at half-maximum, and is an inverse measure of the substrate's affinity for the enzyme. […]

N=C(N)NCCC[C@H](N)C(=O)O [2] = test: as above; assay type: biochemical, Bacillus cereus; settings: other: substrate arginine (62.5-2000 μM), pH 7.4
Description: as §1, §2, §3

“AAD fusion protein His-ABD-PolyN-ADI (FIG. 3E), SEQ ID NO: 40, ADI originated from Mycoplasma arginini (Mycoplasmopsis arginini)” showed a Km (N=C(N)NCCC[C@H](N)C(=O)O [1]) of 4.1 µM.

Substance “AAD fusion protein His-ABD-PolyN-bcADI (FIG. 3F), SEQ ID NO: 41, ADI originated from Bacillus cereus (Bacillus cereus AH820)” has a Km (N=C(N)NCCC[C@H](N)C(=O)O [2]) of 132 µM.
